Read-outs that look alike come from different tables or passages of the source. Values belong to the molecule of their own block, whether it stands above or below them. Primed or numbered codes have the meaning given here. Where no end group is shown, it is not given here. [ ]: non-standard residue; d: D form. pS = N[C@@H](COP(=O)(O)O)C(=O)O; Biotin′ = not defined here
Key:
[1] = system: p[…]-Biotin; experiment: Octet binding assay of PTM-specific affinity reagent candidates, pTQR peptide; conditions: fixed concentration of reagent
Protocol: This Example characterizes an exemplary phosphorylated threonine recognizer for use in methods of the disclosure. Octet binding assays at a fixed concentration of PTM-specific affinity reagent candidates were evaluated for binding with phospho-threonine, phospho-serine containing peptides (p[…]-Biotin; p[…]-Biotin; p[…]-Biotin), and control peptides without modifications ([…]-Biotin; […]-Biotin).

[2] = system: SAKLDEESILKQ-Biotin; experiment: Octet binding assay of PTM-specific affinity reagent candidates, SA control peptide; parameters: unit not given here; conditions: fixed concentration of reagent
Text: This Example characterizes an exemplary phosphorylated threonine recognizer for use in methods of the disclosure.

[3] = biological target: T1, …-Biotin; experiment: Octet (BLI), fixed reagent concentration
T1 sequence (peptide, C-terminal Biotin): SAKLDEESILKQ

[4] = biological target: T2, p…-Biotin; experiment: Octet (BLI), fixed reagent concentration
T2 sequence (peptide, phosphothreonine at 1; C-terminal Biotin): TAKLDEESILKQ

[5] = biological target: T3, pSAKLDEESILKQ-Biotin; experiment: Octet (BLI), fixed reagent concentration;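 further: octet binding of candidate PTM-specific affinity reagents, each at one fixed concentration, to biotinylated phospho-Thr or phospho-Ser peptides, with unmodified biotinylated peptides serving as controls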
T3 peptide: [pS]AKLDEESILKQ-{Biotin′}
Protocol: Octet binding assays at a fixed concentration of PTM-specific affinity reagent candidates were evaluated for binding with phospho-threonine, phospho-serine containing peptides (p[sequence]-Biotin; p[sequence]-Biotin; p[sequence]-Biotin), and control peptides without modifications ([sequence]-Biotin; [sequence]-Biotin).

Molecule: PM15: Human/Pin1, SEQ ID NO: 15
Octet binding assay response, pTQR [1]: 7.4
Octet binding assay response, SA ([2]; SA = […]-Biotin (control)): 0.5

Molecule: PM08: Human/DLG4, SEQ ID NO: 8
Octet binding assay response, pTQR [1]: 1.2

Molecule: PM03: Human/14-3-3 protein eta, SEQ ID NO: 3
Octet binding assay response, pTQR [1]: 0.4
Octet binding assay response, SA ([2]; SA = […]-Biotin (control)): 0.3

Molecule: PM16 (Human/PLK1) (from UniProt P53350 326-603)
Octet binding assay response [3]: 0.5
Octet binding assay response ([4]; pTA phosphothreonine peptide): 1.7
Octet binding assay response ([4]; pTQR phosphothreonine peptide): 2.1

Molecule: PM09 (Human/BRCA1 Tandem domain) (from UniProt P38398 1646-1859)
Octet binding assay response [3]: 0.1

Molecule: PM02: Human/14-3-3 protein theta, SEQ ID NO: 2
Octet binding assay response, pTQR [1]: 0.5

B1: PM22 (Schizosaccharomyces pombe/FCP1) (other)
chain: MKQKVLKGCRLLFSGVIPLGVDVLSSDIAKWAMSFGAEVVLDFSVPPTHLIAAKIRTEKVKKAVSMGNIKVVKLNWLTESLSQWKRLPESDYLL
Octet binding assay response [3]: 0.2
Octet binding assay response [5]: 0.1

B2: PM22: Schizosaccharomyces pombe/FCP1, SEQ ID NO: 22 (protein)
chain: B1 chain
Octet binding assay response, SA ([2]; SA = SAKLDEESILKQ-Biotin (control)): 0.2

B6: PM17 (Human/DIDO1) (other)
chain: MTLFLSRLSTIWKGFINMQSVAKFVTKAYPVSGCFDYLSEDLPDTIHIGGRIAPKTVWDYVGKLKSSVSKELCLIRFHPATEEEEVAYISLYSYFSSRGRFGVVANNNRHVKDLYLIPLSAQDPVPSKLLPFEGPGLESPRPNIILGLVICQKIKRPANS
Octet binding assay response [3]: 0.2
Octet binding assay response [5]: 0.2

The remaining lines, values ahead:

Octet binding assay response [3]: 0.5
Molecule: PM15 (Human/Pin1) (from UniProt Q13526 1-163)

Octet binding assay response [3]: 0.3
Octet binding assay response [4]: 1.2
Molecule: PM08 (Human/DLG4) (from UniProt P78352 426-724)

Octet binding assay response [3]: 0.2
Octet binding assay response [5]: 0.2
B3: PM01 (Human/14-3-3 protein epsilon) (other)
chain: MDDREDLVYQAKLAEQAERYDEMVESMKKVAGMDVELTVEERNLLSVAYKNVIGARRASWRIISSIEQKEENKGGEDKLKMIREYRQMVETELKLICCDILDVLDKHLIPAANTGESKVFYYKMKGDYHRYLAEFATGNDRKEAAENSLVAYKAASDIAMTELPPTHPIRLGLALNFSVFYYEILNSPDRACRLAKAAFDDAIAELDTLSEESYKDSTLIMQLLRDNLTLWTSDMQGDGEEQNKEALQDVEDENQ

Octet binding assay response [3]: 0.1
Octet binding assay response [5]: 0.1
B4: PM04 (Human/14-3-3 protein gamma) (other)
chain: MVDREQLVQKARLAEQAERYDDMAAAMKNVTELNEPLSNEERNLLSVAYKNVVGARRSSWRVISSIEQKTSADGNEKKIEMVRAYREKIEKELEAVCQDVLSLLDNYLIKNCSETQYESKVFYLKMKGDYYRYLAEVATGEKRATVVESSEKAYSEAHEISKEHMQPTHPIRLGLALNYSVFYYEIQNAPEQACHLAKTAFDDAIAELDTLNEDSYKDSTLIMQLLRDNLTLWTSDQQDDDGGEGNN

Octet binding assay response [3]: 0.2
Octet binding assay response [5]: 0.2
B5: PM11 (Human/TOPBP1) (other)
chain: MVYNMVMSDVTISCTSLEKEKREEVHKYVQMMGGRVYRDLNVSVTHLIAGEVGSKKYLVAANLKKPILLPSWIKTLWEKSQEKKITRYTD

From patent publication US20250147035A1, “METHODS FOR DETECTION OF POST-TRANSLATIONAL MODIFICATIONS” (Quantum-Si Incorporated, priority 2023, published 2025)
